Results as given in patent US20090149389A1 (PURDUE RESEARCH FOUNDATION, published 2009).

Tests used:
Assay in all cases: cell-based or functional assay
MAPKI (h) = MAPKI (h) (human (h), UniProt P28482 1-360, limits assumed)
Abl (h) = Abl (h) (human (h), UniProt P00519 27-1130, limits assumed)
BTK (h) = BTK (h) (human (h), UniProt Q06187 1-659)
AMPK (r) = AMPK (r) (rat (r), UniProt Q09137 1-552, limits assumed)
EphA2 (h) = target: T1, EphA2 (h) (human (h), UniProt P29317 591-976, limits assumed)
T1 sequence (looked up): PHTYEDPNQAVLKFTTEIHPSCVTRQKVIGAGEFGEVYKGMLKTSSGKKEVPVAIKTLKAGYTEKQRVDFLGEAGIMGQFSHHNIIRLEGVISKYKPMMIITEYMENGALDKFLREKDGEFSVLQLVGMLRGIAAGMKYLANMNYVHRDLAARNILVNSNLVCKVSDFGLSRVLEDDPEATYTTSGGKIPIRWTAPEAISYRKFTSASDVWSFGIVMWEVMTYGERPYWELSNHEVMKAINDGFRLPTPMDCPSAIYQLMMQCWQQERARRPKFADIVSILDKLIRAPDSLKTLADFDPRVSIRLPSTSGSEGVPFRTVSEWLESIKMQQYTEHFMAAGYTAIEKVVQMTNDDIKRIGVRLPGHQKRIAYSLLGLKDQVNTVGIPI

GSK3β (h) = GSK3β (h) (human (h), UniProt P49841 1-420)
Sequence of GSK3β (h) (P49841 whole entry): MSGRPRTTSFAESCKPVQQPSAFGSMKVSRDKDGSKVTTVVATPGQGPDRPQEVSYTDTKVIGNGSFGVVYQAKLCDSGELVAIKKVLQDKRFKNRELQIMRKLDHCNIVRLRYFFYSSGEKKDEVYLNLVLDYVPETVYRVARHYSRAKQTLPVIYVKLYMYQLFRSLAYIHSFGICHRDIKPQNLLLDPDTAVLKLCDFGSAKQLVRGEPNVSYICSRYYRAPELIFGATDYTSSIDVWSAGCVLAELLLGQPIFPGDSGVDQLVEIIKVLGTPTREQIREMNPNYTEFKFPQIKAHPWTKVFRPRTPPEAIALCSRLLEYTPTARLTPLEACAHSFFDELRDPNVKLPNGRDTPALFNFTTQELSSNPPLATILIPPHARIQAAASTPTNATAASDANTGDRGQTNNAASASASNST

PKG1β (h) = target: T2, PKG1β (h) (human (h), UniProt Q13976-2 1-686)
T2 sequence (looked up): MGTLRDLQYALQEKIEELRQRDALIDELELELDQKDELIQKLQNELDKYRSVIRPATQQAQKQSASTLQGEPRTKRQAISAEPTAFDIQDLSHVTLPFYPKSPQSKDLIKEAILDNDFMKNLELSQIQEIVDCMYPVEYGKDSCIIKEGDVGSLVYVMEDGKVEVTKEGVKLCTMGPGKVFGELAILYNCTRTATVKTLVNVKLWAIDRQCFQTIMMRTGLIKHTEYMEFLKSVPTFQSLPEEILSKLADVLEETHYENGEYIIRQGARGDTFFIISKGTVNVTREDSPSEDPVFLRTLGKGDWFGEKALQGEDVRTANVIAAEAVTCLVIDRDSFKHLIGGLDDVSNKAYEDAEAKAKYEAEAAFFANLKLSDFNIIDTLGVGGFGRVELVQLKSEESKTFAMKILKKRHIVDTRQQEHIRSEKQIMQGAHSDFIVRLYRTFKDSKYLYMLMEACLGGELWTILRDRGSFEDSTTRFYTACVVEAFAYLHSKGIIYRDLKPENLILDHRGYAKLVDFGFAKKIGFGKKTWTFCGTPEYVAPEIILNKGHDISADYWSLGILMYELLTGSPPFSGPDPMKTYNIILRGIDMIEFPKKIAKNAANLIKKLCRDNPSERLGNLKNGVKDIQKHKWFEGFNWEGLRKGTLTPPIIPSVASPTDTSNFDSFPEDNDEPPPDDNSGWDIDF

KDR (tl) = KDR (tl) (UniProt P35968 790-1356, limits assumed)
Sequence of KDR (tl) (P35968 790-1356 limits assumed): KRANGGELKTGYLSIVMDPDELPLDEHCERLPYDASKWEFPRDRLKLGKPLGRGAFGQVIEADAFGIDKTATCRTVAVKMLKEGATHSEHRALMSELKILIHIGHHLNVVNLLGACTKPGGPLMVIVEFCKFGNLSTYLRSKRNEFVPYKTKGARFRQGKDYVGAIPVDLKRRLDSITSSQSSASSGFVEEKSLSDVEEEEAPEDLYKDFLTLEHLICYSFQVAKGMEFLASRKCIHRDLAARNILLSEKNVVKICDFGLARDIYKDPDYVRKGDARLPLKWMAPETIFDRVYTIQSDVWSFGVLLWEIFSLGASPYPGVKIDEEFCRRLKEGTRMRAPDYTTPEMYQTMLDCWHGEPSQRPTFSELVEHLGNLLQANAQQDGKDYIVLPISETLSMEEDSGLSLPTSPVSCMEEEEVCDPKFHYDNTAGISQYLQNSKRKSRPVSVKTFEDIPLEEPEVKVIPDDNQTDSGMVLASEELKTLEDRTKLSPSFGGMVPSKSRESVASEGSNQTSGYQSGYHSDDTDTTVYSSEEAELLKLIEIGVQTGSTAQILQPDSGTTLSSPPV

JAK3 (h) = JAK3 (h) (human (h), UniProt P52333 781-1124, limits assumed)
Sequence of JAK3 (h) (P52333 781-1124 limits assumed): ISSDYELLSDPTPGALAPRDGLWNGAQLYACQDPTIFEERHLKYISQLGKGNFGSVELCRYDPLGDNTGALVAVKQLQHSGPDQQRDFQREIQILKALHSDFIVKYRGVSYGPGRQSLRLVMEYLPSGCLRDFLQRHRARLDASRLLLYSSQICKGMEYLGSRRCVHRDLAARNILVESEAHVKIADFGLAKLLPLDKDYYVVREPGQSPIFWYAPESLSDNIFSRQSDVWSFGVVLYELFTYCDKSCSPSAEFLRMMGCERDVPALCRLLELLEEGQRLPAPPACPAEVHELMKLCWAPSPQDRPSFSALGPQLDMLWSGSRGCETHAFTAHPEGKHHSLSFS

TrkA (h) = TrkA (h) (human (h), UniProt P04629 441-796, limits assumed)
Sequence of TrkA (h) (P04629 441-796 limits assumed): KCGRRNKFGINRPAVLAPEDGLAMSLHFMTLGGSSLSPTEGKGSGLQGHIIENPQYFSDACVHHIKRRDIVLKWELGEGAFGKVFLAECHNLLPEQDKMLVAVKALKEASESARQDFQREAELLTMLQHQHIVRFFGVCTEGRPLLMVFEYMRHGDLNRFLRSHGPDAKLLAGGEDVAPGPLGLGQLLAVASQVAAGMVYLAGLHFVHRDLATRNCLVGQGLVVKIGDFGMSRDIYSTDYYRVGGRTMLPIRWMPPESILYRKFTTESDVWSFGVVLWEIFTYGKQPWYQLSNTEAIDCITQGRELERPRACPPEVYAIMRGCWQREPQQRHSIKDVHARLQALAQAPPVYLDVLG

CDKI/cyclinB (h) = CDKI/cyclinB (h) (human (h), UniProt P06493 1-297)
Tie2 (h) = Tie2 (h) (human (h), UniProt Q02763 771-1124, limits assumed)
Sequence of Tie2 (h) (Q02763 771-1124 limits assumed): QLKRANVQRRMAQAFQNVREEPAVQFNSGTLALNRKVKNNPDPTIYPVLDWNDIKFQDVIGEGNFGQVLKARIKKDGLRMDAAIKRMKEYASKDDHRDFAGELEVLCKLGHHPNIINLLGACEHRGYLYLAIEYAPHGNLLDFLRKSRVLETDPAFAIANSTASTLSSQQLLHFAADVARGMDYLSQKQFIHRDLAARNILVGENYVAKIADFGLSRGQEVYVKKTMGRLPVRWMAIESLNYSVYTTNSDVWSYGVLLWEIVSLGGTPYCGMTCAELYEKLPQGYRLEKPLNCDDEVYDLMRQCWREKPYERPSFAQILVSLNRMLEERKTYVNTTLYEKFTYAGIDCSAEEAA

PKB β (h) = PKB β (h) (human (h), UniProt P31751 1-481, limits assumed)
Sequence of PKB β (h) (P31751 whole entry): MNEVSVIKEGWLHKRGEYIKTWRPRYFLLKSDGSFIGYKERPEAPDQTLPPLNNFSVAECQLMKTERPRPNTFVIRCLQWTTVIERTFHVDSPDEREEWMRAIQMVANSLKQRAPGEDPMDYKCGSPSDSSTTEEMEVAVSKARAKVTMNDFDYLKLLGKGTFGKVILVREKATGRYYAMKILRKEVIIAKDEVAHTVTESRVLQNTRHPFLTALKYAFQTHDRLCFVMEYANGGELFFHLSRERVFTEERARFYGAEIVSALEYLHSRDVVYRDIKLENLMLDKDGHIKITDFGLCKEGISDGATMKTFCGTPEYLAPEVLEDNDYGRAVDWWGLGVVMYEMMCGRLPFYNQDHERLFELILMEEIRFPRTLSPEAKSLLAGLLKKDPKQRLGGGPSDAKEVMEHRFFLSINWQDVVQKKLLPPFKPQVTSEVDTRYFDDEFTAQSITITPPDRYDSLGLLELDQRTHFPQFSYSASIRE

EGFR (h) = EGFR (h) (human (h), UniProt P00533 696-1210, limits assumed)
MLCK (h) = MLCK (h) (human (h))
CaMKI (h) = CaMKI (h) (human (h), UniProt Q14012 1-370, limits assumed)
Sequence of CaMKI (h) (Q14012 whole entry): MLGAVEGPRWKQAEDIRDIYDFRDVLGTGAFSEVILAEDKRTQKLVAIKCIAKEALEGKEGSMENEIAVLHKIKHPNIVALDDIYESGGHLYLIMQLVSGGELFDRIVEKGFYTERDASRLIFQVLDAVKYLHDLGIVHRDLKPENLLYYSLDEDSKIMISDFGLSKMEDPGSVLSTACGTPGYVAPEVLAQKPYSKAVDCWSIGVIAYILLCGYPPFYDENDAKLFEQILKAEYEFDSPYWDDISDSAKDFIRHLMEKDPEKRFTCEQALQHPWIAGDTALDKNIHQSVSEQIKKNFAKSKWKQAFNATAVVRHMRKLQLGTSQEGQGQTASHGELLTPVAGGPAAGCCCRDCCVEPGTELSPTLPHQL

ROCK-1 (h) = ROCK-1 (h) (human (h), UniProt Q13464 17-535, limits assumed)
MEKI (h) = MEKI (h) (human (h), UniProt Q02750 1-393)
CHK1 (h) = target: T3, CHK1 (h) (human (h), UniProt O14757 1-476)
T3 sequence (looked up): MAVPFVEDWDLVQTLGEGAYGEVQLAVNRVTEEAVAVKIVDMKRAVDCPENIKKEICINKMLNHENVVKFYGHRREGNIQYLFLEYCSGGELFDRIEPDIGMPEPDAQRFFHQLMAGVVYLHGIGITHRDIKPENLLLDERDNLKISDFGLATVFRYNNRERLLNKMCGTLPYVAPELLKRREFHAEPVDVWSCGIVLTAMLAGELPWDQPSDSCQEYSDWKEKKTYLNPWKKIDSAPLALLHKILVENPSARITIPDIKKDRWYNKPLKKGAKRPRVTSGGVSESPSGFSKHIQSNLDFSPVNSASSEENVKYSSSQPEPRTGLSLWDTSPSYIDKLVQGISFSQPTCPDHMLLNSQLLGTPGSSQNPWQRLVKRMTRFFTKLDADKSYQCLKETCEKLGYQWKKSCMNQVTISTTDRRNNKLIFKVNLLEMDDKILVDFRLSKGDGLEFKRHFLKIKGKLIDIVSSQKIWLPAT

SAPK2 a (h) = SAPK2 a (h) (human (h), UniProt Q16539 1-360)
Src(1-530) (h) = Src(1-530) (h) (human (h), UniProt P12931 1-530)
CK2 (h) = CK2 (h) (human (h), UniProt P68400 1-391)
Sequence of CK2 (h) (P68400 whole entry): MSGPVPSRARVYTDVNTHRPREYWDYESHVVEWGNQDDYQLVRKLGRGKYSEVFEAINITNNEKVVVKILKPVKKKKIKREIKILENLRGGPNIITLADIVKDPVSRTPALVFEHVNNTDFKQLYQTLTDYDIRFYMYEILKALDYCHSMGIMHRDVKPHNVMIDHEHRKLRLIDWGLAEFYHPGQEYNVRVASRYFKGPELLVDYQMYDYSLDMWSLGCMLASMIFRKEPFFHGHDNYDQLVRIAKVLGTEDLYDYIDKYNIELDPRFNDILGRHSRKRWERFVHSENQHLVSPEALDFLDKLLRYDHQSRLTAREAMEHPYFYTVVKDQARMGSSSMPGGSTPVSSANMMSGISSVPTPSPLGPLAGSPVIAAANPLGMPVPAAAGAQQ

Sequence of Abl (h) (P00519 27-1130 limits assumed): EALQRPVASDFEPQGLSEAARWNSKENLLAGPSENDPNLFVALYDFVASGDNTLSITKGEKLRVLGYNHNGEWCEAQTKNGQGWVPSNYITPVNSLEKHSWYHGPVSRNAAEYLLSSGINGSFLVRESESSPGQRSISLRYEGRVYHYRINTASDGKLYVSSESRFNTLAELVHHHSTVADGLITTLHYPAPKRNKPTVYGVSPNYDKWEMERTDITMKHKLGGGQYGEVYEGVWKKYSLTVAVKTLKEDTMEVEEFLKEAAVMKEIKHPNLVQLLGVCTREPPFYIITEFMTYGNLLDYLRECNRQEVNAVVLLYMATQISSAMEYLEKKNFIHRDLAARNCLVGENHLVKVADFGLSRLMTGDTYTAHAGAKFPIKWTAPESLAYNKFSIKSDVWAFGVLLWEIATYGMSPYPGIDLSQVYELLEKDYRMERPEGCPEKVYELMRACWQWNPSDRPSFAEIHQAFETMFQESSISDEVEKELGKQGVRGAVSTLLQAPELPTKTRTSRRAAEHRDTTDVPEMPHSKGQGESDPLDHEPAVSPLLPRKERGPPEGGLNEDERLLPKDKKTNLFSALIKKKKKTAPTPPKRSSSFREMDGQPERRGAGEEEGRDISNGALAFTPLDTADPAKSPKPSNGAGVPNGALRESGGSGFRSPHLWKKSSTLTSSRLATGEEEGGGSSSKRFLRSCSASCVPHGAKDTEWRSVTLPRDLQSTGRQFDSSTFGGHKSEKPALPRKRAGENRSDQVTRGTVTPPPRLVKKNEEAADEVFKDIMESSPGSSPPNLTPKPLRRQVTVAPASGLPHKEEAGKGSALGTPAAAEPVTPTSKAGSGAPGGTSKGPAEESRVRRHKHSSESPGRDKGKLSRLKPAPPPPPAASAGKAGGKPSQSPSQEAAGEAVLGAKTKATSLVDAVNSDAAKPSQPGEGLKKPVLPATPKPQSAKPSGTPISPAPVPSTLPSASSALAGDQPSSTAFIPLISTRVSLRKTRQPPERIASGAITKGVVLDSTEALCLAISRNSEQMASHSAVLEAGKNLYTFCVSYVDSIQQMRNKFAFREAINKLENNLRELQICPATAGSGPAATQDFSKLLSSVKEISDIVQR
Sequence of AMPK (r) (Q09137 whole entry): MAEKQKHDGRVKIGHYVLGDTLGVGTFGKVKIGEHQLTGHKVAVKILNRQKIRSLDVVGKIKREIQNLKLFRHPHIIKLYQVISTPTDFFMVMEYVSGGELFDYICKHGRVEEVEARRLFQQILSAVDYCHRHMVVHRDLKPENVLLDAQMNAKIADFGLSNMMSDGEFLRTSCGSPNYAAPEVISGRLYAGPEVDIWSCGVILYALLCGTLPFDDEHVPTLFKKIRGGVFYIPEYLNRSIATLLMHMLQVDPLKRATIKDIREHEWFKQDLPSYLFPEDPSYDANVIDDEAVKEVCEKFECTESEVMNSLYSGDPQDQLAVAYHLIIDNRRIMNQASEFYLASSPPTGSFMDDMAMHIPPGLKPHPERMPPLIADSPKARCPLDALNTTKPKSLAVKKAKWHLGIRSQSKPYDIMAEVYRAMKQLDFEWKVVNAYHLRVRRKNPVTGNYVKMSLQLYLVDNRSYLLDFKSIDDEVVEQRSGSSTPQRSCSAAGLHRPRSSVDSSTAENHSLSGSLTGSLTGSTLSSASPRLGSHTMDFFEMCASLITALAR

Binder: WLRRIKAWLRRIKALNRQLGVAA
- Profile-1 @ = 30 µm (kinase profiler assay) (MAPKI (h)): 121
- Profile-1 @ = 30 µm (kinase profiler assay) (Abl (h)): 24
- Profile-1 @ = 30 µm (kinase profiler assay) (BTK (h)): 5
- Profile-1 @ = 30 µm (kinase profiler assay) (AMPK (r)): 36
- Profile-1 @ = 30 µm (kinase profiler assay) (EphA2 (h)): 38
- Profile-1 @ = 30 µm (kinase profiler assay) (GSK3β (h)): 129
- Profile-1 @ = 30 µm (kinase profiler assay) (PKG1β (h)): 15
- Profile-1 @ = 30 µm (kinase profiler assay) (KDR (tl)): 27
- Profile-1 @ = 30 µm (kinase profiler assay) (JAK3 (h)): 85
- Profile-1 @ = 30 µm (kinase profiler assay) (TrkA (h)): 6
- Profile-1 @ = 30 µm (kinase profiler assay) (CDKI/cyclinB (h)): 17
- Profile-1 @ = 30 µm (kinase profiler assay) (Tie2 (h)): 17
- Profile-1 @ = 30 µm (kinase profiler assay) (PKB β (h)): 18
- Profile-1 @ = 30 µm (kinase profiler assay) (EGFR (h)): 10
- Profile-1 @ = 30 µm (kinase profiler assay) (MLCK (h)): 4
- Profile-1 @ = 30 µm (kinase profiler assay) (CaMKI (h)): 9
- Profile-1 @ = 30 µm (kinase profiler assay) (ROCK-1 (h)): 0
- Profile-1 @ = 30 µm (kinase profiler assay) (MEKI (h)): 14
- Profile-1 @ = 30 µm (kinase profiler assay) (CHK1 (h)): 31
- Profile-1 @ = 30 µm (kinase profiler assay) (SAPK2 a (h)): 61
- Profile-1 @ = 30 µm (kinase profiler assay) (Src(1-530) (h)): 6
- Profile-1 @ = 30 µm (kinase profiler assay) (CK2 (h)): 114
